Tests used:
[1] = Intracisternal delivery of 800-rhBDNF in naïve rats (Spectralis IRAF/IR imaging, NIR microscopy and HE histopathology); format: in vivo
Method: A Dyomics Near InfraRed (NIR) dye 800 was conjugated to rhBDNF (800-rhBDNF) as set forth above. […] Three single doses of 800-rhBDNF were injected midline intracisternally in naïve rats (n=4; n=3 800-rhBDNF, n=1 control, unmodified dye 800 carboxylic acid form). Three test doses of 800-rhBDNF were selected: lowest (5 μL for syringe, at 0.20 concentration=1 μg study article), mid-, and highest (30 μL; upper volume constraint is 50 μL). Images at three timepoints were collected, just prior to treatment, 15 min, and 6 h using two imaging modalities in both eyes (left eye, oculus sinister, OS; right eye, oculus dexter, OD). Imaging and histopathology methods were used to detect 800-rhBDNF in the optic chiasm or optic nerve head.
Two seetings were selected on the Heidelberg Spectralis®. Infrared autofluorescence IRAF; or ICG, to detect indocyanine green, an NIR dye uses a diode laser with a wavelength of 790 nm in the NIR spectrum. A barrier filter at 830 nm separates excitation and fluorescence light and thus, IRAF/ICG detects near IR fluorescence in 800-rhBDNF. […] After dissection, tissues were cryostatted to preserve NIR 800. Two directly contiguous sets of slides were produced from two sections of optic nerve, optic chiasm from brain tissue, and optic nerve head from eyes. HE stain.
Hematoxylin and eosin (HE) stain was applied to one slide set to reveal nerve tissue. NIR microscopy. Using an Olympus IX73 inverted 2-deck microscope with motorized filter cube turret; objective turret; Proscan XYZ stage; a 75 W Xenon burner; and DP80 Dual CCD 12.7 MP camera, NIR images are acquired in two channels at 4× in the FITC channel (detects auto-fluorescence) and ICG channel. The morphology of HE stained slides to those with FITC+NIR images was compared to confirm that NIR 800 had localized to in nerve tissue.

TrkB receptor = experiment: Bioassay in RGC cultures for TrkB receptor binding; format: cell-based

- TrkB receptor binding following synthesis (TrkB receptor): TrkB receptor binding remains intact
B1: 800-rhBDNF: Dyomics Near InfraRed (NIR) dye 800 conjugated to rhBDNF (conjugate, UniProt P23560 19-247, looked up)
Neurotrophic factor BDNF …: APMKEANIRGQGGLAYPGVRTHGTLESVNGPKAGSRGLTSLADTFEHVIEELLDEDQKVRPNEENNKDADLYTSRVMLSSQVPLEPPLLFLLEEYKNYLDAANMSMRVRRHSDPARRGELSVCDSISEWVTAADKKTAVDMSGGTVTVLEKVPVSKGQLKQYFYETKCNPMGYTKEGCRGIDKRHWNSQCRTTQSYVRALTMDSKKRIGWRFIRIDTSCVCTLTIKRGR
modifications: Dyomics 800 NIR dye
notes: Dyomics Near InfraRed (NIR) dye 800 conjugated to rhBDNF
- localized irritation in the retinas ([1]; intracisternal injection, live imaging at baseline, 15 min and 6 h): No localized irritation in the retinas was observed
- distribution of midline injection (both eyes) ([1]; midline intracisternal injection, imaging in OS and OD): distributed bilaterally
- transport of 800 dye from the site of injection ([1]; preliminary studies, given intracisternally): transports 800 dye away from the site of injection, via the optic chiasm, to the optic nerve head
- localization of NIR 800 dye in nerve tissue (morphology of NIR microscopy compared to HE stain) ([1]; single midline intracisternal injection, histopathology after euthanasia at 6 h, optic chiasm and optic nerve head): localizes the 800 dye and moves the 800 dye away from the injection site via optic chiasm to optic nerve head

From patent publication US11897928B2, “Conjugates for delivering an anti-cancer agent to nerve cells, methods of use and methods of making thereof” (Manzanita Pharmaceuticals, Inc., priority 2018, dated 2024)
